In paper doi:10.1101/2025.09.09.675108 (bioRxiv, 2025):
Non-standard residues stand in square brackets, D forms with d. *: point of attachment. FITC = O=C1OC2(c3ccc(O)cc3Oc3cc(O)ccc32)c2ccc(NC(=S)*)cc21; pT = C[C@@H](OP(=O)(O)O)[C@H](N)C(=O)O

Legend:
Test in all cases: fluorescence polarisation
[1] = target: DDIAS pS993 peptide (FITC-ETRSAWpSPELFS-NH2)
[2] = target: DDIAS pS676 peptide (FITC-SYDAp…-NH2)
[3] = target: recombinant TOPBP1 BRCT7/8 domain (amino acids 1264-1493), WT (UniProt Q92547 1264-1493)
Chain of recombinant TOPBP1 BRCT7/8 domain (amino acids 1264-1493), WT (Q92547 1264-1493): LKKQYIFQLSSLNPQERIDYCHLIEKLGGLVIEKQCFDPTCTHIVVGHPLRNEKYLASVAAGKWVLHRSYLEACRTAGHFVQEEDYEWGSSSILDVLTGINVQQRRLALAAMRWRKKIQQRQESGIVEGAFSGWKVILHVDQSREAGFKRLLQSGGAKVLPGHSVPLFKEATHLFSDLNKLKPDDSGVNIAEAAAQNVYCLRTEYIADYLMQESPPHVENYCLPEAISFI

Q: “recombinant TOPBP1 BRCT7/8 domain (amino acids 1264-1493), WT (from UniProt Q92547 1264-1493) (domain or fragment)” was tested. Which Kd [1] did it give?
A: 1200 nM

Q: What about the Kd [2] of the same molecule?
A: 300 nM

Q: For {FITC}-ESIYF[pT]PELYDPEDT-NH2 [pBRIP1 peptide (FITC-ESIYFpTPELYDPEDT-NH2)], which Kd [3] is on record?
A: 200 nM
